Measurements reported in patent publication US12673971B2, “Amyloid-β aggregation inhibitor, pharmaceutical composition foramyloid-β aggregation disease, and use application of same” (O-FORCE CO., LTD, priority 2020, dated 2026).

Tests used:
Aβ25-35 [1] = molecular target: T1, Aβ25-35 (Homo sapiens, UniProt P05067); assay: Aggregation inhibition assay (thioflavin T fluorescence); format: biochemical; conditions: 0.1 mM peptide, 0.1 mM Aβ25-35, 0.1 mM ThT, Tris-HCl pH 7.5, 37° C., FIG. 1; for fluorescence intensity of the reaction solution after 8 and 24 hours: vs negative control; for fluorescence intensity of the reaction solution 4 hours after incubation: vs negative control (Aβ25-35 only)
T1 construct: The Aβ25-35 is a peptide constituted by 11 amino acid residues consisting of the 25th to 35th amino acid residues
Description: An Aβ-derived fragment peptide was used for aggregation of Aβ. Aβ25-35, which has high aggregability, was selected as the fragment peptide. The Aβ25-35 is a peptide constituted by 11 amino acid residues consisting of the 25th to 35th amino acid residues in the full length sequence of human-derived Aβ (GSNKGAIIGLM (SEQ ID NO: 4), hereinafter also referred to as Ab25-35).
The fluorescent dye thioflavin T (ThT) binds to Ab aggregates and emits strong fluorescence upon binding, and thus the increase or inhibition of aggregation can be determined by measuring the fluorescence intensity. Thus, the inhibition of aggregation of Aβ25-35 by Peptide 1 (GSGNR (SEQ ID NO: 1)) and Peptide 2 (GSGFK (SEQ ID NO: 2)) was checked using ThT.
Specifically, a reaction solution with the following composition was prepared and dispensed into wells such that the amount of the reaction solution per well was 300 μL, and incubated at 37° C., and the change in fluorescence intensity over time was measured using a measurement device (product name Cytation5, manufactured by BioTek) (n=3). The measurement wavelengths were set such that the excitation wavelength (ex) was 444 nm and the emission wavelength (em) was 480 nm. As a control, a reaction solution to which water was added instead of Peptide 1 and Peptide 2 was also measured in the same way.

Aβ25-35 [2] = molecular target: T1, Aβ25-35; assay: Concentration assay (ThT fluorescence, varied final peptide concentration); format: biochemical; conditions: for fluorescence intensity compared with the negative control: 37° C.
Method: The concentrations of Peptide 1 (GSGNR (SEQ ID NO: 1)) and Peptide 2 (GSGFK (SEQ ID NO: 2)) with respect to Aβ25-35 were checked. Unless otherwise indicated, measurements were performed according to (2) above.
First, as for Peptide 2 (GSGFK (SEQ ID NO: 2)), 200 μL of mixed solution with the composition shown in Table 2 below was added per well, 10 μL of 2 mmol/L ThT was further added to the well immediately before measurement, and this reaction solution was incubated at 37° C. The change in fluorescence intensity 4 hours after the start of measurement was measured using the above-mentioned measurement device (n=3). Furthermore, reaction solutions with the following composition but with different final concentrations of Peptide 2 were also measured in the same way. As a negative control, a reaction solution with the following composition to which neither Peptides 1 nor 2 was added was also measured in the same way.
Next, as for Peptide 1 (GSGNR (SEQ ID NO: 1)), 200 μL of mixed solution with the composition shown in Table 2 above was added per well, 10 μL of 2 mmol/L ThT was further added to the well immediately before measurement, and this reaction solution was incubated at 37° C. The change in fluorescence intensity 8 hours after the start of measurement was measured using the above-mentioned measurement device (n=6). Furthermore, reaction solutions with the composition above but with different final concentrations of Peptide 1 were also measured in the same way. As a negative control, a reaction solution with the composition above to which neither Peptides 1 nor 2 was added was also measured in the same way.

Aβ25-35 [3] = molecular target: T1, Aβ25-35; assay: ThT fluorescence of the solutions administered to the mouse groups; format: biochemical; conditions: 0.5 μg/μL Aβ25-35 and 0.25 μg/μL Peptide 2 mixed in equal amounts, 37° C., day 11, vs Aβ25-35 solution, FIG. 3
Method: In parallel with the administration to the mice in each group, the fluorescence intensity was measured for the solutions administered to each group. Specifically, a mixed solution obtained by mixing 0.5 μg/μL Aβ25-35 and 0.25 μg/μL Peptide 2 in equal amounts, which was the same as that administered to the administration group, and a 0.5 μg/μL Aβ25-35 solution, which was the same as that administered to the negative control group, were each added in an amount of 100 μL per well, and 10 μL of 1 mmol/L ThT was further added to the well immediately before measurement. These reaction solutions were each reacted at 37° C., and the fluorescence intensity was measured as in Example 1 above.

C57BL/6 mice [4] = assay: Y-maze (short-term memory assessment) test; format: in vivo; conditions: 2 μL of 0.5 μg/μL Aβ25-35 and 2 μL of 0.25 μg/μL Peptide 2 into hippocampal CA1; days 11, 27 and 39; vs negative control group (Aβ25-35 only), FIG. 4
Method: In this example, 2 μL of 0.5 μg/μL Aβ25-35 and 2 μL of 0.25 μg/μL Peptide 2 were directly administered using a micro syringe to the CA1 area of the hippocampus of the brain of the administration group of C57BL/6 mice (7 to 13 months old mice) (n=3). In a similar manner, 2 μL of 0.5 μg/μL Aβ25-35 was directly administered using a micro syringe to the CA1 area of the hippocampus of the brain of the negative control group of C57BL/6 mice (n=3). Neither 2 μL of Aβ25-35 nor Peptide 2 was administered to the positive control group of C57BL/6 mice (n=3). Each group was then given a Y-maze (short-term memory assessment) test on days 11, 27, and 39 after administration, and an object recognition test over 3 days starting from day 49. • Administration group (7 months old): Aβ25-35(+)/GSGFK(+) • Negative control group (7 months old): Aβ25-35(+)/GSGFK(−) • Positive control group (13 months old): Aβ25-35(−)/GSGFK(−)
The Y-maze test was conducted in a general manner under the following conditions. That is to say, mice were placed such that their noses faced the wall at an end of one particular arm among the three arms. The mice were allowed to move freely for 10 minutes, and their behavior was captured on a monitor of an analyzer (product name: Time YM1, manufactured by O'hara & Co., Ltd.) to calculate the alternation behavior rate (alternation behavior (%)).

C57BL/6 mice [5] = assay: Object recognition test (ORT); format: in vivo; conditions: administration group Aβ25-35(+)/GSGFK(+), day 52 (test over 3 days from day 49), FIG. 6
Method: In this example, 2 μL of 0.5 μg/μL Aβ25-35 and 2 μL of 0.25 μg/μL Peptide 2 were directly administered using a micro syringe to the CA1 area of the hippocampus of the brain of the administration group of C57BL/6 mice (7 to 13 months old mice) (n=3). In a similar manner, 2 μL of 0.5 μg/μL Aβ25-35 was directly administered using a micro syringe to the CA1 area of the hippocampus of the brain of the negative control group of C57BL/6 mice (n=3). Neither 2 μL of Aβ25-35 nor Peptide 2 was administered to the positive control group of C57BL/6 mice (n=3). […]
The object recognition test (ORT) from day 49 was conducted as follows. […] For each group, the speed of movement of the mice in the cage was measured, as well as the percentage (%) of time they stayed in the center region of the cage (the inner region being at least 7.5 cm away from a side wall of the cage).
After one day, two identical objects were placed in the cage and the mice were allowed to explore freely for one hour (sample phase). […] Also, the approach time of the mice to each object was measured in each of the sample and test phases. The percentage of the exploration time for the object on the right side with respect to the total exploration time was then determined (100× right side exploration time/total exploration time (%)).

Aβ25-35 aggregates = molecular target: T2, Aβ25-35 aggregates (Homo sapiens, UniProt P05067); assay: Dissociation of pre-formed Aβ25-35 aggregates (ThT fluorescence); format: biochemical; conditions: 40 μL of 10 mmol/L peptide added to 4000 μL reaction solution with aggregates of 0.1 mM Aβ25-35 (24 h, 37° C.); 4 hr vs 0 hr, FIG. 7
T2 construct: The Aβ25-35 is a peptide constituted by 11 amino acid residues consisting of the 25th to 35th amino acid residues
Method: A reaction solution with the following composition was prepared and incubated at 37° C. for 24 hours to form aggregates of Aβ25-35. After incubation, the fluorescence intensities of the reaction solution with the following composition to which Aβ25-35 was added and a reaction solution to which water was added instead of Aβ25-35 were measured as in Example 1.
Then, 40 μL of 10 mmol/L Peptide 1 or Peptide 2 was added to 4000 μL of the reaction solution in which the aggregates were formed (0 hr), the mixture was incubated at 37° C., and the change in fluorescence intensity over time was measured (n=3). As a control, a reaction solution to which water was added instead of Peptide 1 and Peptide 2 was also measured at 0 hr in the same way. Then, the percentage (%) of decrease in fluorescence intensity after 4 hr was obtained from the fluorescence intensity at 0 hr.

[6] = Peptide 2, with respect to 100 μmol/L Aβ25-35, 4 hours, FIG. 2(A)
[7] = Peptide 1, with respect to 100 μmol/L Aβ25-35, 8 hours, FIG. 2(B)

Row | Substance | fluorescence intensity of the reaction solution after 8 and 24 hours (Aβ25-35 [1]) | fluorescence intensity of the reaction solution 4 hours after incubation (Aβ25-35 [1]) | fluorescence intensity compared with the negative control (Aβ25-35 [2]; Peptide 2, 100 μmol/L Aβ25-35, PBS, 4 hours after start of measurement, FIG. 2(A)) | final concentration at which aggregation was inhibited in a particularly excellent manner (Aβ25-35 [2]; [6]) | final concentration at which aggregation was more effectively inhibited (Aβ25-35 [2]; [6]) | final concentration at which aggregation was significantly inhibited sufficiently (Aβ25-35 [2]; [6]) | fluorescence intensity of the mixed solution on day 11 (Aβ25-35 [3]) | alternation behavior rate (short-term memory) (C57BL/6 mice [4]) | percentage of exploration time for the object on the right side, test phase compared with sample phase (C57BL/6 mice [5]) | decrease in fluorescence intensity 4 hours after peptide addition to pre-formed aggregates (Aβ25-35 aggregates) | fluorescence intensity compared with the negative control (Aβ25-35 [2]; Peptide 1, 100 μmol/L Aβ25-35, PBS, 8 hours after start of measurement, FIG. 2(B)) | final concentration at which aggregation was inhibited in a particularly excellent manner (Aβ25-35 [2]; [7]) | final concentration at which aggregation was significantly inhibited sufficiently (Aβ25-35 [2]; [7])
1 | GSGFK [Peptide 2] | did not increase after 8 and 24 hours | slightly increased 4 hours after incubation, but it was well below the negative control | significantly reduced the fluorescence intensity | around 10 μmol/L | ≥ 10 µmol/L | ≥ 5 µmol/L | did not show an increase in fluorescence intensity | short-term memory is maintained as with the positive control group | significant increase in the percentage of exploration time for the object on the right side in the test phase | significant decrease in fluorescence intensity | – | – | –
2 | GSGNR [Peptide 1] | decreased significantly compared with the negative control after 8 and 24 hours | had increased 4 hours after incubation | – | – | – | – | – | – | – | significant decrease in fluorescence intensity | significantly reduced the fluorescence intensity | around 10 μmol/L | ≥ 1 µmol/L
